According to patent publication US20200179511A1 (Novartis, published 2020):

Assays:
[1] = target: T1, human BCMA (B-cell maturation antigen) (human, UniProt Q02223 1-184); assay: cell-based or functional assay
T1 sequence (looked up): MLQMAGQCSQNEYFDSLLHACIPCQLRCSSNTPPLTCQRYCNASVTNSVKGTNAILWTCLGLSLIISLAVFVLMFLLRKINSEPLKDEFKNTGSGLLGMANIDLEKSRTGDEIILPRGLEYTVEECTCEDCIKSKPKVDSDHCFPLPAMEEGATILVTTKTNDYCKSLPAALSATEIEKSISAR

[2] = target: T1, human BCMA (B-cell maturation antigen); assay: cell-based or functional assay; remark: listed apart in the source

B1: BCMA×CD3 bispecific antibody ER26 (bispecific antibody, human IgG1, kappa, N297A)
heavy: QVQLVQSGAEVKKPGSSVKVSCKASGGTFSNYWMHWVRQAPGQGLEWMGATYRGHSDTYYNQKFKGRVTITADKSTSTAYMELSSLRSEDTAVYYCARGAIYNGYDVLDNWGQGTLVTVSSASTKGPSVFPLAPSSKSTSGGTAALGCLVKDYFPEPVTVSWNSGALTSGVHTFPAVLQSSGLYSLSSVVTVPSSSLGTQTYICNVNHKPSNTKVDKRVEPKSCDKTHTCPPCPAPELLGGPSVFLFPPKPKDTLMISRTPEVTCVVVAVSHEDPEVKFNWYVDGVEVHNAKTKPREEQYNSTYRVVSVLTVLHQDWLNGKEYKCKVSNKALAAPIEKTISKAKGQPREPQVCTLPPSREEMTKNQVSLSCAVKGFYPSDIAVEWESNGQPENNYKTTPPVLDSDGSFFLVSKLTVDKSRWQQGNVFSCSVMHEALHNHYTQKSLSLSPGK
light: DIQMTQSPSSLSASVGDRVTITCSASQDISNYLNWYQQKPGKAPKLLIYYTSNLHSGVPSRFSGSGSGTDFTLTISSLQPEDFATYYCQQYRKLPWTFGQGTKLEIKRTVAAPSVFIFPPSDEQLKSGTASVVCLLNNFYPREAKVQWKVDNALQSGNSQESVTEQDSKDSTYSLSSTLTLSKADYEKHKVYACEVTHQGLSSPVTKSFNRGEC
chain: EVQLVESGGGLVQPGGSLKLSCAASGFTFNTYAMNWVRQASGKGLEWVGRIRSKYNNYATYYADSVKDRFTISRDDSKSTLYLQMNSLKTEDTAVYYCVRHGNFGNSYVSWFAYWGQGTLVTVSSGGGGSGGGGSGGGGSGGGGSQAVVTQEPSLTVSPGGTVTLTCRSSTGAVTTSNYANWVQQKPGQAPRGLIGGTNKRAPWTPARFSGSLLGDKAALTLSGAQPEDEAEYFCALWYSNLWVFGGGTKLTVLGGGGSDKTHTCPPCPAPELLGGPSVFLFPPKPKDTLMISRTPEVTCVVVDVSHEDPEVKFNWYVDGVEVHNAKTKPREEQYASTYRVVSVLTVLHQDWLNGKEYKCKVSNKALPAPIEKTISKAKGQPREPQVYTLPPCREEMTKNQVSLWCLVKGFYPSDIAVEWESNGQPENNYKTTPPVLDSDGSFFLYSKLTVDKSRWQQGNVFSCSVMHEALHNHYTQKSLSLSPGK
fold enhancement of RTCC EC50 upon GSI treatment [1]: > 100 fold

B2: BCMA×CD3 bispecific antibody EE11 (bispecific antibody)
chain 1: not shown
chain 2: EVQLVESGGGLVQPGGSLKLSCAASGFTFNTYAMNWVRQASGKGLEWVGRIRSKYNNYATYYADSVKDRFTISRDDSKSTLYLQMNSLKTEDTAVYYCVRHGNFGNSYVSWFAYWGQGTLVTVSSGGGGSGGGGSGGGGSGGGGSQAVVTQEPSLTVSPGGTVTLTCRSSTGAVTTSNYANWVQQKPGQAPRGLIGGTNKRAPWTPARFSGSLLGDKAALTLSGAQPEDEAEYFCALWYSNLWVFGGGTKLTVLGGGGSDKTHTCPPCPAPELLGGPSVFLFPPKPKDTLMISRTPEVTCVVVAVSHEDPEVKFNWYVDGVEVHNAKTKPREEQYNSTYRVVSVLTVLHQDWLNGKEYKCKVSNKALAAPIEKTISKAKGQPREPQVCTLPPSRDELTKNQVSLSCAVKGFYPSDIAVEWESNGQPENNYKTTPPVLDSDGSFFLVSKLTVDKSRWQQGNVFSCSVMHEALHNHYTQKSLSLSPGK
fold enhancement of RTCC EC50 upon GSI treatment [1]: ≥ 10 fold

B3: Anti-BCMA J6M0 hIgG DLE CGW117 (MMAE) conjugate (antibody, V domains shown)
VH: QVQLVQSGAEVKKPGSSVKVSCKASGGTFSNYWMHWVRQAPGQGLEWMGATYRGHSDTYYNQKFKGRVTITADKSTSTAYMELSSLRSEDTAVYYCARGAIYDGYDVLDNWGQGTLVTVSS
VL: DIQMTQSPSSLSASVGDRVTITCSASQDISNYLNWYQQKPGKAPKLLIYYTSNLHSGVPSRFSGSGSGTDFTLTISSLQPEDFATYYCQQYRKLPWTFGQGTKLEIKR
modifications: drug conjugate CGW117 (MMAE); attachment site not stated
Fold GSI Enhancement, ADC killing assay, MM1S cells [2]: 17.4 fold
Fold GSI Enhancement, ADC killing assay, U266B1 cells [2]: 23.1 fold
IC50, ADC killing assay, MM1S cells, No GSI [2]: 19.4 nM
IC50, ADC killing assay, MM1S cells, with GSI LY-411575 [2]: 1.12 nM
IC50, ADC killing assay, U266B1 cells, No GSI [2]: 6.04 nM
IC50, ADC killing assay, U266B1 cells, with GSI LY-411575 [2]: 0.26 nM

B4: Pfizer_CD3_H2B4_RRRR-Pfizer_BCMA_comboC29_EEEE hIgG2a_ASS (bispecific antibody)
heavy 1: EVQLLESGGGLVQPGGSLRLSCAASGFTFSSYPMSWVRQAPGKGLEWVSAIGGSGGSLPYADSVKGRFTISRDNSKNTLYLQMNSLRAEDTAVYYCARYWPMDIWGQGTLVTVSSASTKGPSVFPLAPCSRSTSESTAALGCLVKDYFPEPVTVSWNSGALTSGVHTFPAVLQSSGLYSLSSVVTVPSSNFGTQTYTCNVDHKPSNTKVDKTVERKCEVECPECPAPPVAGPSVFLFPPKPKDTLMISRTPEVTCVVVAVSHEDPEVQFNWYVDGVEVHNAKTKPREEQFNSTFRVVSVLTVVHQDWLNGKEYKCKVSNKGLPSSIEKTISKTKGQPREPQVYTLPPSREEMTKNQVSLTCEVKGFYPSDISVEWESNGQPENNYKTTPPMLDSDGSFFLYSKLTVDKSRWQQGNVFSCSVMHEALHNHYTQKSLSLSPGK
light 1: EIVLTQSPGTLSLSPGERATLSCRASQSVSSSYLAWYQQKPGQAPRLLMYDASIRATGIPDRFSGSGSGTDFTLTISRLEPEDFAVYYCQQYQSWPLTFGQGTKVEIKRTVAAPSVFIFPPSDEQLKSGTASVVCLLNNFYPREAKVQWKVDNALQSGNSQESVTEQDSKDSTYSLSSTLTLSKADYEKHKVYACEVTHQGLSSPVTKSFNRGEC
heavy 2: EVQLVESGGGLVQPGGSLRLSCAASGFTFSDYYMTWVRQAPGKGLEWVAFIRNRARGYTSDHNASVKGRFTISRDNAKNSLYLQMNSLRAEDTAVYYCARDRPSYYVLDYWGQGTTVTVSSASTKGPSVFPLAPCSRSTSESTAALGCLVKDYFPEPVTVSWNSGALTSGVHTFPAVLQSSGLYSLSSVVTVPSSNFGTQTYTCNVDHKPSNTKVDKTVERKCRVRCPRCPAPPVAGPSVFLFPPKPKDTLMISRTPEVTCVVVAVSHEDPEVQFNWYVDGVEVHNAKTKPREEQFNSTFRVVSVLTVVHQDWLNGKEYKCKVSNKGLPSSIEKTISKTKGQPREPQVYTLPPSREEMTKNQVSLTCLVKGFYPSDISVEWESNGQPENNYKTTPPMLDSDGSFFLYSRLTVDKSRWQQGNVFSCSVMHEALHNHYTQKSLSLSPGK
light 2: not shown
Fold GSI Enhancement, RTCC assay, KMS11 target cells [2]: 48.3 fold
IC50, RTCC assay, KMS11 target cells, No GSI [2]: 0.097 nM
IC50, RTCC assay, KMS11 target cells, with GSI LY-450139 [2]: 2 pM
IC50, RTCC assay, KMS11 target cells, with GSI PF-3084014 [2]: 2 pM
IC50, RTCC assay, KMS11 target cells, with GSI PF-5212362 [2]: 2 pM

B5: BCMA×CD3 bispecific antibody EM90 (bispecific antibody)
light: QAVVTQEPSLTVSPGGTVTLTCGSSTGAVTTSNYANWVQEKPGQAFRGLIGGTNKRAPGTPARFSGSLLGGKAALTLSGAQPEDEAEYYCALWYSNLWVFGGGTKLTVLGQPKAAPSVTLFPPSSEELQANKATLVCLISDFYPGAVTVAWKADSSPVKAGVETTTPSKQSNNKYAASSYLSLTPEQWKSHRSYSCQVTHEGSTVEKTVAPTECS
heavy 1: not shown
heavy 2: EVQLVESGGGLVKPGGSLRLSCAASGFTFSNSGMIWVRQAPGKGLEWVGHIRSKTDGGTTDYAAPVKGRFTISRDDSKNTLYLQMNSLKTEDTAVYYCTTGGSGSFDYWGQGTLVTVSSASTKGPSVFPLAPSSKSTSGGTAALGCLVKDYFPEPVTVSWNSGALTSGVHTFPAVLQSSGLYSLSSVVTVPSSSLGTQTYICNVNHKPSNTKVDKRVEPKSCDKTHTCPPCPAPEAAGGPSVFLFPPKPKDTLMISRTPEVTCVVVDVSHEDPEVKFNWYVDGVEVHNAKTKPREEQYNSTYRVVSVLTVLHQDWLNGKEYKCKVSNKALPAPIEKTISKAKGQPREPQVCTLPPSREEMTKNQVSLSCAVKGFYPSDIAVEWESNGQPENNYKTTPPVLDSDGSFFLVSKLTVDKSRWQQGNVFSCSVMHEALHNHYTQKSLSLSPGK
fold enhancement of RTCC EC50 upon GSI treatment [1]: > 40 fold

B6: BCMA×CD3 bispecific antibody BU76 (bispecific antibody, human IgG1, kappa, N297A)
heavy: QIQLVQSGPELKKPGETVKISCKASGYTFTDYSINWVKRAPGKGLKWMGWINTETREPAYAYDFRGRFAFSLETSASTAYLQINNLKYEDTATYFCALDYSYAMDYWGQGTSVTVSSASTKGPSVFPLAPSSKSTSGGTAALGCLVKDYFPEPVTVSWNSGALTSGVHTFPAVLQSSGLYSLSSVVTVPSSSLGTQTYICNVNHKPSNTKVDKRVEPKSCDKTHTCPPCPAPELLGGPSVFLFPPKPKDTLMISRTPEVTCVVVDVSHEDPEVKFNWYVDGVEVHNAKTKPREEQYASTYRVVSVLTVLHQDWLNGKEYKCKVSNKALPAPIEKTISKAKGQPREPQVCTLPPSREEMTKNQVSLSCAVKGFYPSDIAVEWESNGQPENNYKTTPPVLDSDGSFFLVSKLTVDKSRWQQGNVFSCSVMHEALHNHYTQKSLSLSPGK
light: DIVLTQSPASLAMSLGKRATISCRASESVSVIGAHLIHWYQQKPGQPPKLLIYLASNLETGVPARFSGSGSGTDFTLTIDPVEEDDVAIYSCLQSRIFPRTFGGGTKLEIKRTVAAPSVFIFPPSDEQLKSGTASVVCLLNNFYPREAKVQWKVDNALQSGNSQESVTEQDSKDSTYSLSSTLTLSKADYEKHKVYACEVTHQGLSSPVTKSFNRGEC
chain: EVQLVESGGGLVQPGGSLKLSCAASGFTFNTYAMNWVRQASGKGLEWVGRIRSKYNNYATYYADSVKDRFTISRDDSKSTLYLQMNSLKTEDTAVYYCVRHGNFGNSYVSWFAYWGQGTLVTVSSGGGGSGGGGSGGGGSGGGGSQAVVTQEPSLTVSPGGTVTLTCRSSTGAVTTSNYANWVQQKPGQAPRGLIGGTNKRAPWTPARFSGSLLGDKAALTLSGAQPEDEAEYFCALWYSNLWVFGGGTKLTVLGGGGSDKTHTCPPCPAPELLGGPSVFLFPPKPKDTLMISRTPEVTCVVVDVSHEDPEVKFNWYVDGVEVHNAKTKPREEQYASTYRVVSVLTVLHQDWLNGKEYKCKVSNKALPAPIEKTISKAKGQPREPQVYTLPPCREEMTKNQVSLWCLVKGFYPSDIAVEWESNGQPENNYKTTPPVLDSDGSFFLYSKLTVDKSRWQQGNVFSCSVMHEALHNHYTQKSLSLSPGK
fold enhancement of RTCC EC50 upon GSI treatment [1]: > 100 fold
